# Reference: publication PMC12153344, “Deciphering the role of accessory proteins in Arabidopsis chloroplast editosomes via interaction with a synthetic PPR-PLS factor in E. coli”
# T1: dsn3PLS-DYW (synthetic construct (design of Royan et …, UniProt UPI0040747504 1-612))
# T1 chain: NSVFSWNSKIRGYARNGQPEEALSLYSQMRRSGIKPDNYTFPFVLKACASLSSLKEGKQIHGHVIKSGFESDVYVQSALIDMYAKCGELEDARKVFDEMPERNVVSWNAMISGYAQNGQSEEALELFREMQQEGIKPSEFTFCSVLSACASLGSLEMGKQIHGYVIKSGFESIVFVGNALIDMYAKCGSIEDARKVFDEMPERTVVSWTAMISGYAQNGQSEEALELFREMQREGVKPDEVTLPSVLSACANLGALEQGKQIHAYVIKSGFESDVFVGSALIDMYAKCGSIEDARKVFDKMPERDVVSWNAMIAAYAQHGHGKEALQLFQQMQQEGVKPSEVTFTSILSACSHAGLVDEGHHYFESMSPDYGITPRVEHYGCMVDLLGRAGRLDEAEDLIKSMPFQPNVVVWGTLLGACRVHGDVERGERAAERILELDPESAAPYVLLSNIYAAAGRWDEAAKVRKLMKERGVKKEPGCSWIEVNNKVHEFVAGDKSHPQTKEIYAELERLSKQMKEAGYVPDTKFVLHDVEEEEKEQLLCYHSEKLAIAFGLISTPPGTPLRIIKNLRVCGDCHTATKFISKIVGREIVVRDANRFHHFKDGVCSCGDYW
# T2: MBP-ORRM1 (Arabidopsis, UniProt Q8L440 55-374)
# T2 sequence: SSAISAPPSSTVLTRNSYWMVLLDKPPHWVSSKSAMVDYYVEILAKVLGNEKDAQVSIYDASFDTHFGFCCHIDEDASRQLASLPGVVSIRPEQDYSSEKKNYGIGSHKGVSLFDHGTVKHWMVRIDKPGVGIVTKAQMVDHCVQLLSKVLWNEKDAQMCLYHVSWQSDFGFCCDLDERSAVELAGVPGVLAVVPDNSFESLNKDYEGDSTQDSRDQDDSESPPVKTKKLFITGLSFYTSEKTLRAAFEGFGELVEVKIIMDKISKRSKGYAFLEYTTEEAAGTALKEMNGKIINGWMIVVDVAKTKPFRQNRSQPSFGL
# What was measured:
# [1] = molecular target: T1, dsn3PLS-DYW; test: EMSA; dsn3PLS-DYW alone; Kd estimated, value only in figure; REMSA following Royan et al. (2021), binding buffer, pH and temperature not given in the material; proteins stored in 25 mM Tris-HCl pH 7.2, 250 mM NaCl, 20% glycerol, 0.5 mM EDTA, 1 mM DTT; details: protein: recombinant; tags: N-terminal thioredoxin (109 aa)-6xHis, 133 aa tag in total (pETM20); label: 5'-Cy5; single strand
# [2] = molecular target: T2, MBP-ORRM1; test: EMSA; MBP-ORRM1; no shift after many purification attempts; REMSA following Royan et al. (2021), binding buffer, pH and temperature not given in the material; proteins stored in 25 mM Tris-HCl pH 7.2, 250 mM NaCl, 20% glycerol, 0.5 mM EDTA, 1 mM DTT; details: protein: recombinant; tags: N-terminal MBP; label: 5'-Cy5; single strand
binder,measurement,setting,value
AUGUAUUACACGUGCAAAAUCUGAGA (ssRNA) [rpoA_REMSA],binding result,[1],binds
same,binding result,[2],no binding
